Reference: article PMC10767740, “Recombinant Full-Length TDP-43 Oligomers Retain Their Ability to Bind RNAs, Are Not Toxic, and Do Not Seed TDP-43 Aggregation in Vitro” (ACS Chemical Neuroscience, 2023)

Biological target: the molecule itself
Assay: ThT aggregation kinetics + TEM; 5 μM core peptide, 20 μM ThT, with or without 2.5% fibrillar seeds of the same peptide; 25 °C, 40 h, shaken 5 s at 100 rpm before each reading; TEM at the end

B1: TDP-43 core peptide 279–360 (peptide, UniProt Q13148 279-360, looked up)
chain: NPGGFGNQGGFGNSRGGGAGLGNNQGSNMGGGMNFGAFSINPAMMAAAQAALQSSWGMMGMLASQQNQSGPSGNNQNQGNMQ
notes: also called amyloid core peptide; source: lyophilized, disaggregated in HFIP/TFA
binding result: binds
